Reference: article PMC4226739 (The Journal of Cell Biology, 2014)
Each block holds one binder with its values, some of them ahead of it.

Tests used:
Test in all cases: FRAP in micropatterns
[1] = target: STAT2 fused to monomeric EGFP (STAT2-EGFP) (UniProt P52630 1-851)
[2] = target: STAT2 fused to tagRFP-T (STAT2-tagRFP) (UniProt P52630 1-851)
[3] = target: tyk2 fused to monomeric EGFP (tyk2-EGFP) (UniProt P29597 1-1187)
Sequence of tyk2 fused to monomeric EGFP (tyk2-EGFP) (P29597 whole entry, the tested form may be a part): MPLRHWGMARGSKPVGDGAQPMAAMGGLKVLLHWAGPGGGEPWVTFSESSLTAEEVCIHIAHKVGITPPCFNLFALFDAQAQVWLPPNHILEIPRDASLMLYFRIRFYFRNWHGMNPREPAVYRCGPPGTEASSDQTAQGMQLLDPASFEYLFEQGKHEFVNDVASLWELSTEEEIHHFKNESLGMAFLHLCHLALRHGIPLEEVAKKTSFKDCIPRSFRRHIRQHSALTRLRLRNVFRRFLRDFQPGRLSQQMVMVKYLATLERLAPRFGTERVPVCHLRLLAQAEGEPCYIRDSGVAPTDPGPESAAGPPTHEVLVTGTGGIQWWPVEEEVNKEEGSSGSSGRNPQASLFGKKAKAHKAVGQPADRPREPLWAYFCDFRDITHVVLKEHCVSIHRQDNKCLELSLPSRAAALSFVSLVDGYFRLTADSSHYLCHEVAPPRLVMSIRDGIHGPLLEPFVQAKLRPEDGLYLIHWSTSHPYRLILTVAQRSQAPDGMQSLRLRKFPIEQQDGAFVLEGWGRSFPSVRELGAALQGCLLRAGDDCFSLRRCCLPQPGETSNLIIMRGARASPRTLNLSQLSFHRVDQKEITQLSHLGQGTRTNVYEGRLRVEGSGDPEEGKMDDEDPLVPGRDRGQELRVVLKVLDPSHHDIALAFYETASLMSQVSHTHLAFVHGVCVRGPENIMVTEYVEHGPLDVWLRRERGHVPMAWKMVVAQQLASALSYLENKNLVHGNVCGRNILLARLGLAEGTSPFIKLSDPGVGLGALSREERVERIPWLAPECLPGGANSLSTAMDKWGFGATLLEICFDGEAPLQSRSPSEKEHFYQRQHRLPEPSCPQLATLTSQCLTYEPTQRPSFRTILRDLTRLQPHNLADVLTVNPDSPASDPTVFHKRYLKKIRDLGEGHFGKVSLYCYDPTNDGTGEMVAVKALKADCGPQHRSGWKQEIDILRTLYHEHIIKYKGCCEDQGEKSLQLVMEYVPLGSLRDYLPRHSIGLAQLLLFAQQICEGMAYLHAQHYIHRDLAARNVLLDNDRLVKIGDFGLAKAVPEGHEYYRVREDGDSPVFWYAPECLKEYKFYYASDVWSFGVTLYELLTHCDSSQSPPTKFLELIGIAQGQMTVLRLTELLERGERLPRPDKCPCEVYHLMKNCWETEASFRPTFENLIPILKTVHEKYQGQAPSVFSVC

Sequence of STAT2 fused to tagRFP-T (STAT2-tagRFP) (P52630 whole entry, the tested form may be a part): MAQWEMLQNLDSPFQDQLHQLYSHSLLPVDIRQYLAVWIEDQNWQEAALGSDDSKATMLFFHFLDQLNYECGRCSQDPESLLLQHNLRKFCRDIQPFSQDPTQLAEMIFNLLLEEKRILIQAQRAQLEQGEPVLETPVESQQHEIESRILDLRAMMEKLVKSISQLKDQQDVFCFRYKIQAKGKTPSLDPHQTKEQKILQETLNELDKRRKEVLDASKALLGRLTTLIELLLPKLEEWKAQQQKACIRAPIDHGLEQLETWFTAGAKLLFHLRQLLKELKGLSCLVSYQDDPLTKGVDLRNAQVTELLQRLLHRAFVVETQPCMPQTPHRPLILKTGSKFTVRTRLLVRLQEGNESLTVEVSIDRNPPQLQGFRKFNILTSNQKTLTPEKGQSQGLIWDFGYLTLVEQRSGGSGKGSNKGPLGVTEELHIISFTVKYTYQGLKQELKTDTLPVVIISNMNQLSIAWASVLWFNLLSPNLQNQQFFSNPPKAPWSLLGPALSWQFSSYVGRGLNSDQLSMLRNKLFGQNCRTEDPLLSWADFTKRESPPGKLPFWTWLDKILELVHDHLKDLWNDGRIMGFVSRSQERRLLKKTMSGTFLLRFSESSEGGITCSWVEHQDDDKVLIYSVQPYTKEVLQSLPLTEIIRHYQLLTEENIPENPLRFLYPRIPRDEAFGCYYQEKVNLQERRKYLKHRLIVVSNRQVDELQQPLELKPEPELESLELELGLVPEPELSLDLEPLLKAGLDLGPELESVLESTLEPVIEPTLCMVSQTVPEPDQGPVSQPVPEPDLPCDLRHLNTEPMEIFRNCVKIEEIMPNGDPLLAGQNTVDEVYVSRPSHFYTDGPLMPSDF
Sequence of STAT2 fused to monomeric EGFP (STAT2-EGFP) (P52630 whole entry, the tested form may be a part): as above

koff [1]: 0.12 ± 0.05 s⁻¹
koff [2]: 0.015 ± 0.005 s⁻¹
B1: HaloTag-IFNAR2 (receptor)
chain: ISYDSPDYTDESCTFKISLRNFRSILSWELKNHSIVPTHYTLLYTIMSKPEDLKVVKNCANTTRSFCDLTDEWRSTHEAYVTVLEGFSGNTTLFSCSHNFWLAIDMSFEPPEFEIVGFTNHINVMVKFPSIVEEELQFDLSLVIEEQSEGIVKKHKPEIKGNMSGNFTYIIDKLIPNTNYCVSVYLEHSDEQAVIKSPLKCTLLPPGQESESAESAKIGGIITVFLIALVLTSTIVTLKWIGYICLRNSLPKVLNFHNFLAWPFPNLPPLEAMDMVEVIYINRKKKVWDYNYDDESDSDTEAAPRTSGGGYTMHGLTVRPLGQASATSTESQLIDPESEEEPDLPEVDVELPTMPKDSPQQLELLSGPCERRKSPLQDPFPEEDYSSTEGSGGRITFNVDLNSVFLRVLDDEDSDDLEAPLMLSSHLEEMVDPEDPDNVQSNHLLASGEGTQPTFPSPSSEGLWSEDAPSDQSDTSESDVDLGDGYIMR

koff [3]: ~0.0025 s⁻¹
B2: IFNAR1 fused to an N-terminal HaloTag (HaloTag-IFNAR1) (receptor)
chain: KNLKSPQKVEVDIIDDNFILRWNRSDESVGNVTFSFDYQKTGMDNWIKLSGCQNITSTKCNFSSLKLNVYEEIKLRIRAEKENTSSWYEVDSFTPFRKAQIGPPEVHLEAEDKAIVIHISPGTKDSVMWALDGLSFTYSLVIWKNSSGVEERIENIYSRHKIYKLSPETTYCLKVKAALLTSWKIGVYSPVHCIKTTVENELPPPENIEVSVQNQNYVLKWDYTYANMTFQVQWLHAFLKRNPGNHLYKWKQIPDCENVKTTQCVFPQNVFQKGIYLLRVQASDGNNTSFWSEEIKFDTEIQAFLLPPVFNIRSLSDSFHIYIGAPKQSGNTPVIQDYPLIYEIIFWENTSNAERKIIEKKTDVTVPNLKPLTVYCVKARAHTMDEKLNKSSVFSDAVCEKTKPGNTSKIWLIVGICIALFALPFVIYAAKVFLRCINYVFFPSLKPSSSIDEYFSEQPLKNLLLSTSEEQIEKCFIIENISTIATVEETNQTDEDHKKYSSQTSQDSGNYSNEDESESKTSEELQQDFV
